Measured values published in US20230201364A1.

What was measured:
[1] = molecular target: recombinant biotinylated human neonatal Fc receptor (FcRn) (human) (UniProt P55899); test: AlphaLISA competition at pH 6; test molecule titrated against human IgG acceptor beads for biotinylated human FcRn
[2] = molecular target: recombinant biotinylated human Fc gamma receptor IIa (FcγRIIa/CD32a 167H) (human) (UniProt P12318); test: AlphaLISA competition; test molecule titrated against human IgG Fc acceptor beads for biotinylated FcγRIIa
[3] = molecular target: Fc gamma receptor IIb (FcgRIIb, CD32b) (human) (UniProt P31994); test: AlphaLISA competition or analogous assay for FcγRIIb (not described)
[4] = molecular target: recombinant biotinylated human Fc gamma receptor I (FcγRI/CD64) (human) (UniProt P12314); test: AlphaLISA competition; test molecule titrated against human IgG Fc acceptor beads for biotinylated FcγRI
[5] = molecular target: recombinant biotinylated human Fc gamma receptor IIIa (FcγRIIIa/CD16) (human) (UniProt P08637); test: AlphaLISA competition; test molecule titrated against human IgG Fc acceptor beads for biotinylated FcγRIIIa
Chain of recombinant biotinylated human Fc gamma receptor IIIa (FcγRIIIa/CD16) (human) (P08637 17-208 limits assumed): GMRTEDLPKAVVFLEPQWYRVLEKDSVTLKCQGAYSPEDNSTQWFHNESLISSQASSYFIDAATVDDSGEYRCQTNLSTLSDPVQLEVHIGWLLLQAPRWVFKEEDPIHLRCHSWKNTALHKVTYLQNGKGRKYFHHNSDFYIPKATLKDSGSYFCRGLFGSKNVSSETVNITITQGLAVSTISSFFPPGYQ

Chain of recombinant biotinylated human Fc gamma receptor IIa (FcγRIIa/CD32a 167H) (human) (P12318 36-218 limits assumed): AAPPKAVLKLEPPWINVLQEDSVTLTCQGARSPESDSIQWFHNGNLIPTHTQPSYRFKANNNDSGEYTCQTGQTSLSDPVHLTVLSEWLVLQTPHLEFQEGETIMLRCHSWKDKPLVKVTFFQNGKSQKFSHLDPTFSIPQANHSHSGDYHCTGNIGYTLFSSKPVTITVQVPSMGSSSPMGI
Chain of recombinant biotinylated human Fc gamma receptor I (FcγRI/CD64) (human) (P12314 16-288 limits assumed): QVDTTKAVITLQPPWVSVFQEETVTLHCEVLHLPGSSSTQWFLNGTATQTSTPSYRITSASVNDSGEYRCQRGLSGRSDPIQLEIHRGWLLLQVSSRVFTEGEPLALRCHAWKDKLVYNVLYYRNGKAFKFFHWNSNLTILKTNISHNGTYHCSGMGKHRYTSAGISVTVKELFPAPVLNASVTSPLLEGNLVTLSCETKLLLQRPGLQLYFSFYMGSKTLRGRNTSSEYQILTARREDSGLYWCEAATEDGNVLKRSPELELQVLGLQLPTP
Chain of Fc gamma receptor IIb (FcgRIIb, CD32b) (human) (P31994 46-217 limits assumed): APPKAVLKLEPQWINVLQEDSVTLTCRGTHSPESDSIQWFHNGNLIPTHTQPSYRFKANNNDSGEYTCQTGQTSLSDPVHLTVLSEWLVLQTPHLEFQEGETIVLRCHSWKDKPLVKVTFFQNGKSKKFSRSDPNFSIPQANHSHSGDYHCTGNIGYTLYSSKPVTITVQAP
Chain of recombinant biotinylated human neonatal Fc receptor (FcRn) (human) (P55899 24-297 limits assumed, chain 1 of 2): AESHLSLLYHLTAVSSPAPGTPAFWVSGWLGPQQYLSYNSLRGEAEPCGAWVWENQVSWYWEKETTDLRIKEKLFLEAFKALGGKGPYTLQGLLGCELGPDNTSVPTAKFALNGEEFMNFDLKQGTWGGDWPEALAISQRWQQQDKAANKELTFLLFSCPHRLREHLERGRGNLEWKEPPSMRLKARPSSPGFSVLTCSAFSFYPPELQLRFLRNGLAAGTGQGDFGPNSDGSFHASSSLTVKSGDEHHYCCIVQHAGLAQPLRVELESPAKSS
Chain of recombinant biotinylated human neonatal Fc receptor (FcRn) (human) (chain, as listed by the source limits assumed, chain 2 of 2): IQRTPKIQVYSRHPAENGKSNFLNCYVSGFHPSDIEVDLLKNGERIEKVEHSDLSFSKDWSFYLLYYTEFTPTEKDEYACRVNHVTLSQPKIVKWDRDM

Binder	Kd [1]	Kd [2]	Kd [3]	Kd [4]	Kd [5]
CMP-016 (LZM-009 conjugated to CMP-003, DAR 1, K248) (antibody, not fully specified; Nle at 23, 39, 46 and Hse at 41, 71, 104 (as in SEQ ID NO: 3); ~0.5 kDa PEG on Y45; 0.5 kDa PEG on F42Y whose azide end is joined to the DBCO linker of the antibody; the heavy chain carries a chemical linker to CMP-003 on Lys K248 (Eu numbering) of the Fc; DAR 1) VH: QVQLVQSGAEVKKPGASVKVSCKASGYTFTSYYMYWVRQAPGQGLEWMGGVNPSNGGTNFNEKFKSRVTITADKSTSTAYMELSSLRSEDTAVYYCARRDYRYDMGFDYWGQGTTVTVSS VL: EIVLTQSPATLSLSPGERATISCRASKGVSTSGYSYLHWYQQKPGQAPRLLIYLASYLESGVPARFSGSGSGTDFTLTISSLEPEDFATYYCQHSRELPLTFGTGTKVEIK APTSSSTKKTQLQLEHLLLDLQXILNGINNYKNPKLTRXLXYKFYXPKKATELKHLQCLEEELKPLEEVLXLAQSKNFHLRPRDLISNINVIVLELKGSETTFXCEYADETATIVEFLNRWITFSQSIISTLT	25.3 nM	1140 nM	4710 nM	3.81 nM	481 nM
CMP-102 (LZM-009 conjugated to CMP-003, DAR 1, K288) (antibody, not fully specified; Nle at 23, 39, 46 and Hse at 41, 71, 104 (as in SEQ ID NO: 3); ~0.5 kDa PEG on Y45; 0.5 kDa PEG on F42Y whose azide end is joined to the DBCO linker of the antibody; the heavy chain carries a chemical linker to CMP-003 on Lys K288 (Eu numbering) of the Fc; DAR 1) VH: QVQLVQSGAEVKKPGASVKVSCKASGYTFTSYYMYWVRQAPGQGLEWMGGVNPSNGGTNFNEKFKSRVTITADKSTSTAYMELSSLRSEDTAVYYCARRDYRYDMGFDYWGQGTTVTVSS VL: EIVLTQSPATLSLSPGERATISCRASKGVSTSGYSYLHWYQQKPGQAPRLLIYLASYLESGVPARFSGSGSGTDFTLTISSLEPEDFATYYCQHSRELPLTFGTGTKVEIK APTSSSTKKTQLQLEHLLLDLQXILNGINNYKNPKLTRXLXYKFYXPKKATELKHLQCLEEELKPLEEVLXLAQSKNFHLRPRDLISNINVIVLELKGSETTFXCEYADETATIVEFLNRWITFSQSIISTLT	10.7 nM	1180 nM	6680 nM	2.3 nM	272 nM
CMP-028 (LZM-009 conjugated to CMP-003, DAR 1.9, K288) (antibody, not fully specified; Nle at 23, 39, 46 and Hse at 41, 71, 104 (as in SEQ ID NO: 3); ~0.5 kDa PEG on Y45; 0.5 kDa PEG on F42Y whose azide end is joined to the DBCO linker of the antibody; the heavy chain carries a chemical linker to CMP-003 on Lys K288 (Eu numbering) of the Fc; DAR 1.9) VH: QVQLVQSGAEVKKPGASVKVSCKASGYTFTSYYMYWVRQAPGQGLEWMGGVNPSNGGTNFNEKFKSRVTITADKSTSTAYMELSSLRSEDTAVYYCARRDYRYDMGFDYWGQGTTVTVSS VL: EIVLTQSPATLSLSPGERATISCRASKGVSTSGYSYLHWYQQKPGQAPRLLIYLASYLESGVPARFSGSGSGTDFTLTISSLEPEDFATYYCQHSRELPLTFGTGTKVEIK APTSSSTKKTQLQLEHLLLDLQXILNGINNYKNPKLTRXLXYKFYXPKKATELKHLQCLEEELKPLEEVLXLAQSKNFHLRPRDLISNINVIVLELKGSETTFXCEYADETATIVEFLNRWITFSQSIISTLT	27.1 nM	1870 nM	3340 nM	12 nM	5410 nM
